Results from patent US11732029B2, “Methods and compositions for the treatment of wounds” (The University of Chicago, priority 2017, dated 2023).

How the values were obtained:
[1] = test system: full-thickness back-skin wounds in db/db mice; assay: Mouse diabetic skin wound healing model, histomorphometric analysis; format: in vivo; conditions: fibrin matrix, 100 ng VEGF-A165 and 50 ng PDGF-BB, after 7 d, vs fibrin alone
Procedure: Histomorphometric analyses were performed as previously reported. Briefly, an area of 8 mm in diameter, which includes the complete epithelial margins, was excised. Wounds were fixed with 2% PFA and cut in the center into two and embedded into paraffin. Histological analysis was performed on 5 μm serial sections. Images were captured with an EVOS FL Auto microscope (Life Technologies). The extent of re-epithelialization and granulation tissue formation were measured by histomorphometric analysis of tissue sections (H&E staining) using ImageJ software. For analysis of re-epithelialization, the distance that the epithelium had traveled across the wound was measured; the muscle edges of the panniculus carnosus were used as an indicator for the initial wound edges, and re-epithelialization was calculated as the percentage of the distance of edges of the panniculus carnosus muscle. For granulation tissue quantification, the area covered by a highly cellular tissue was determined.
Diabetic skin wound healing assays were performed in the mouse as previously reported. Briefly, C57BLKS/J-m/Lepr db (db/db) male mice were 10 to 12 wk old at the start of the experiments. Their backs were shaved and four full-thickness punch biopsy wounds (6 mm in diameter) were created in each mouse. […]

[2] = target: T1, VEGF-A121 (Homo sapiens, UniProt P15692); assay: vWF binding to recombinant VEGF-A isoforms (ELISA); set-up: All growth factors (GFs) and chemokines were purchased in their mature forms; purchased PeproTech; host or cells: Escherichia coli; conditions: plate coated with 50 nM vWF domains, 1 μg/mL VEGF-A, vs BSA
T1 sequence (P15692 27-147 isoform P15692-9 limits assumed): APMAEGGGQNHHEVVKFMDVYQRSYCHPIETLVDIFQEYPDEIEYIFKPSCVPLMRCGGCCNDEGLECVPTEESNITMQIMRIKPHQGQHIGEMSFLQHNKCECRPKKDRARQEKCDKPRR
Procedure: ELISA was performed as previously reported1. In brief, ELISA plates (med binding: Greiner Bio-One) were coated with 50 nM BSA (GE Healthcare), pro-peptide containing recombinant vWF (Sino Biological), plasma-derived vWF (EMD Millipore), recombinant human vWF A1 domain (U-Protein Express), recombinant human vWF A2 domain (R & D systems), recombinant human vWF A3 domain (U-Protein Express), vWF A1 HBD peptide or scrambled/mutated HBD peptide (all peptides were synthesized by Genscript). After blocking with 2% BSA solution containing PBS-T, 1 μg/mL of recombinant human VEGF-A121 (PeproTech), recombinant human VEGF-A145 (R & D Systems), or recombinant human VEGF-A165 (PeproTech) was added. Bound VEGF-A was detected with 1 μg/mL of mouse anti-human VEGF-A antibody (clone: 26503, R & D systems). After 60 min of incubation, horseradish peroxidase (HRP) conjugated goat anti-mouse antibody (1:2000 dilution, Dako) was added and incubated for another 60 min. Color development and the absorbance measurement were done as described above.

[3] = target: T2, CXCL-12γ (Homo sapiens, UniProt P48061); assay: vWF binding to recombinant GFs (ELISA); conditions: VEGF-A121 signal as baseline
T2 construct: All GFs and chemokines were purchased in their mature forms; purchased R & D Systems; host or cells: Escherichia coli
Procedure: (§1) ELISA tests were performed as previously reported1. In brief, ELISA plates (med-binding, Greiner Bio-One) were coated with 50 nM GFs at 37° C. for 2 hrs. After blocking with 2% BSA solution containing PBS-T, 1 μg/mL of plasma-derived vWF (EMD Millipore) was added. Bound vWF was detected with 1 μg/mL of rabbit anti-human vWF antibody (Sino Biological). Then, HRP conjugated goat anti-rabbit antibody (Jackson ImmunoResearch) was added. After 60 min of incubation, 50 μL TMB substrate (Sigma-Aldrich) was added. The reaction was stopped by adding 25 μL of 2N H2SO4. Subsequently, the absorbance at 450 nm was measured and subtracted the absorbance at 570 nm.

[4] = target: T3, PDGF-DD (Homo sapiens, UniProt Q9GZP0); assay: vWF binding to recombinant GFs (ELISA); conditions: VEGF-A121 signal as baseline
T3 construct: All GFs and chemokines were purchased in their mature forms; purchased PeproTech; host or cells: eukaryotic cells (not further specified)
Procedure: as §1

[5] = target: T4, FGF-18 (Homo sapiens, UniProt O76093); assay: vWF binding to recombinant GFs (ELISA); conditions: VEGF-A121 signal as baseline
T4 construct: All GFs and chemokines were purchased in their mature forms; purchased PeproTech; host or cells: Escherichia coli
T4 sequence (O76093 28-207): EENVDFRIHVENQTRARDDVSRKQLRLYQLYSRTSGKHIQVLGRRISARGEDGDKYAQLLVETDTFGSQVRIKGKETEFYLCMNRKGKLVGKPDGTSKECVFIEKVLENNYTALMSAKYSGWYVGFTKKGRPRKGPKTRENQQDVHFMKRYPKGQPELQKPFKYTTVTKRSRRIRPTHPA
Procedure: as §1

[6] = target: T5, NT-3 (Homo sapiens, UniProt P20783); assay: vWF binding to recombinant GFs (ELISA); conditions: VEGF-A121 signal as baseline
T5 construct: All GFs and chemokines were purchased in their mature forms; purchased PeproTech; host or cells: Escherichia coli
T5 sequence (P20783 139-257): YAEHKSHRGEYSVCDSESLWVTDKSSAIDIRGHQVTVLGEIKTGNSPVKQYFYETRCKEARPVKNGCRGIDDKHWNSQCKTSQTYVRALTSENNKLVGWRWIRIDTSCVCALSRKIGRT
Procedure: as §1

[7] = target: T6, VEGF-A165 (Homo sapiens, UniProt P15692); assay: vWF binding to recombinant GFs (ELISA); conditions: VEGF-A121 signal as baseline
T6 construct: All growth factors (GFs) and chemokines were purchased in their mature forms; purchased PeproTech; host or cells: Escherichia coli
T6 sequence (P15692 27-191 isoform P15692-4 limits assumed): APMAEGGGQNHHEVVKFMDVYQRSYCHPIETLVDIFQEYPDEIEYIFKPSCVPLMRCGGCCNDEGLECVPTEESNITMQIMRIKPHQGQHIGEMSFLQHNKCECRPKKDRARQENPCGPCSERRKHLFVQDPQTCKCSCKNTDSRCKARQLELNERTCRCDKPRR
Procedure: as §1

[8] = target: T7, PDGF-AA (Homo sapiens, UniProt P04085); assay: vWF binding to recombinant GFs (ELISA); conditions: VEGF-A121 signal as baseline
T7 construct: All GFs and chemokines were purchased in their mature forms; purchased PeproTech; host or cells: Escherichia coli
Procedure: as §1

[9] = target: T8, PDGF-BB (Homo sapiens, UniProt P01127); assay: vWF binding to recombinant GFs (ELISA); conditions: VEGF-A121 signal as baseline
T8 construct: All growth factors (GFs) and chemokines were purchased in their mature forms; purchased PeproTech; host or cells: Escherichia coli
Procedure: as §1

[10] = target: T9, EGF (Homo sapiens, UniProt P01133); assay: vWF binding to recombinant GFs (ELISA); conditions: VEGF-A121 signal as baseline
T9 construct: All GFs and chemokines were purchased in their mature forms; purchased PeproTech; host or cells: Escherichia coli
Procedure: as §1

T3 sequence (Q9GZP0 250-370 limits assumed): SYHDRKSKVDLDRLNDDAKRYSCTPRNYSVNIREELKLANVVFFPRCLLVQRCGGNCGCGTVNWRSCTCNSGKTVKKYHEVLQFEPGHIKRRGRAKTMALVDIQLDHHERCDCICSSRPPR
T9 sequence (P01133 971-1023 limits assumed): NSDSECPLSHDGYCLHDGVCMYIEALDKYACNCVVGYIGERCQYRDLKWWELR
T8 sequence (P01127 82-190 limits assumed): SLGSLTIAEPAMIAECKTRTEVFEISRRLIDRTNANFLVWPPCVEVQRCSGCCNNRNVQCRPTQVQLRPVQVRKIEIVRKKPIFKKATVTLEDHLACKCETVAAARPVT
T2 sequence (P48061 22-119 isoform P48061-3): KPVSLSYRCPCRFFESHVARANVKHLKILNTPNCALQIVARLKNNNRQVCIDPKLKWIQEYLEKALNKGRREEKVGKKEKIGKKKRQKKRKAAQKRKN

| Substance | granulation tissue [1] | wound closure [1] | binding to VEGF-A121 [2] | vWF binding to CXCL-12γ [3] | vWF binding to PDGF-DD [4] | vWF binding to FGF-18 [5] | vWF binding to NT-3 [6] | vWF binding to VEGF-A165 [7] | vWF binding to PDGF-AA [8] | vWF binding to PDGF-BB [9] | vWF binding to EGF [10] |
| --- | --- | --- | --- | --- | --- | --- | --- | --- | --- | --- | --- |
| YIGLKDRKRPSELRRIASQVKYAC [vWF HBD] | did not differ | did not differ |  |  |  |  |  |  |  |  |  |
| vWF: human plasma-derived von Willebrand factor (EMD Millipore) |  |  | did not | strong binding signal | bound | bound | relevant binding | bound | bound | bound | did not show binding |
